In US20210107983A1 (Boehringer Ingelheim, published 2021):

Legend:
CD3 on human T-cells = target: T1, CD3 on human T-cells (human, UniProt P07766;P09693); experiment: flow cytometry on purified human T-cells, PE anti-human secondary antibody
T1 construct: endogenous, on the surface of purified T-cells; also called human T-cells expressing CD3
Description: T-cells were isolated by negative selection using the Pan T Cell Isolation Kit II (Miltenyi Biotec #130-091-156). In brief, cells were resuspended in 40 μl buffer PBS/0.5% BSA (Gibco ref #041-94553 M)/2 mM EDTA (Invitrogen ref #15575-038) per 10 Mio cells and incubated with 10 μl of Biotin-Antibody cocktail per 10 Mio cells for 5 min at 4° C. Subsequently, 30 μl buffer and 20 μl anti-biotin MACS® MicroBeds/10 million cells were added and incubated for 10 min at 4° C. Subsequently the mixture was placed in a pre-rinsed 25LS column (Miltenyi Biotec #130-042-401) in the magnetic field of suitable MACS® microbeads separator (Miltenyi Biotec). Flow-through was collected and washed in assay medium.
T-cells were stained with increasing concentrations of two-step purified B7H6/CD3 binding proteins in FACS buffer (PBS/0.5% BSA/0.05% sodium azide). Bound molecules were detected with PE-conjugated anti-human secondary antibody (Sigma-Aldrich, #P8047).

Cyno B7H6-His [1] = target: T2, Cyno B7H6-His (cynomolgus monkey); experiment: ratio of SPR KDs cyno/human
T2 construct: also called CyB7H6; cyB7-H6
T2 chain: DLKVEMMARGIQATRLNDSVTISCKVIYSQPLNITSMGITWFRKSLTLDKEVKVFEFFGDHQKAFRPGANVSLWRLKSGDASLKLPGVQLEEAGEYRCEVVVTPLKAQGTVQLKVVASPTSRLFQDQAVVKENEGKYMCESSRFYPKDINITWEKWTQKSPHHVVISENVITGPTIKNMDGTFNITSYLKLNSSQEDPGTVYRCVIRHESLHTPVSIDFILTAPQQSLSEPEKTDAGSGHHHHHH

Cyno CD3 E+G HuFc-6xHis [2] = target: T3, Cyno CD3 E+G HuFc-6xHis (cynomolgus monkey); experiment: ratio of SPR KDs cyno/human
T3 construct: also called CyCD3E+G-hFc; cyCD3

[3] = target: T4, chicken egg white lysozyme (chicken, UniProt P00698 19-147); experiment: SPR, 1 µM binder over immobilized lysozyme
T4 construct: unrelated positively charged protein, amine-coupled to the chip; also called Lysozyme (positive)
How it was run: (§1)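 Non-specific binding tested with samples at 1 μM in HBS-EP at 25 °C, 5 μL/min, over lysozyme or trypsin inhibitor amine-coupled to CM5 chip (3000–5000 RU). Association 10 min, dissociation 15 min.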

Human B7H1 = target: T5, Human B7H1 (human, UniProt Q9NZQ7 20-239); experiment: SPR, binder captured on Protein A/G, HuB7H1 analyte
T5 construct: also called HuB7H1; huB7-H1
How it was run: (§2)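 B7H6/CD3 binder captured (~700 RU) on a Protein A/G CM5 surface in HBS-EP+. Human or cyno B7H6 injected at 0–100 nM and human B7H1 at 0 nM and 1 μM, 300 s association and 1200 s dissociation. Data double-referenced against the reference flow cell and blank.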

Cyno B7H6-His [4] = target: T2, Cyno B7H6-His; experiment: SPR, binder captured on Protein A/G, B7H6 analyte
How it was run: as §2

Human CD3 E+G HuFc-6xHis = target: T6, Human CD3 E+G HuFc-6xHis (human); experiment: SPR, CD3E+G-hFc immobilized, binder analyte
T6 construct: also called HuCD3E+G-hFc; huCD3
How it was run: (§3)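 On a ProteOn XPR36, human and cyno CD3E+G-hFc were amine-coupled to a GLM chip at 0.4, 0.2 and 0.1 μg/mL in 10 mM acetate pH 4.5. B7H6/CD3 binding protein (0–100 nM) flowed in HBS-EP+ at 30 μL/min, with 300 s association and 600 s dissociation. Interspot and blank responses were subtracted.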

Cyno CD3 E+G HuFc-6xHis [5] = target: T3, Cyno CD3 E+G HuFc-6xHis; experiment: SPR, CD3E+G-hFc immobilized, binder analyte
How it was run: as §3

[6] = target: T7, trypsin inhibitor from Glycine max soybean (Glycine max (soybean)); experiment: SPR, 1 µM binder over immobilized trypsin inhibitor
T7 construct: unrelated negatively charged protein, amine-coupled to the chip
How it was run: as §1

[7] = target: T8, human B7H6 on HCT-15 cells (human, UniProt Q68D85 25-454); experiment: cell-based or functional assay
T8 sequence (looked up): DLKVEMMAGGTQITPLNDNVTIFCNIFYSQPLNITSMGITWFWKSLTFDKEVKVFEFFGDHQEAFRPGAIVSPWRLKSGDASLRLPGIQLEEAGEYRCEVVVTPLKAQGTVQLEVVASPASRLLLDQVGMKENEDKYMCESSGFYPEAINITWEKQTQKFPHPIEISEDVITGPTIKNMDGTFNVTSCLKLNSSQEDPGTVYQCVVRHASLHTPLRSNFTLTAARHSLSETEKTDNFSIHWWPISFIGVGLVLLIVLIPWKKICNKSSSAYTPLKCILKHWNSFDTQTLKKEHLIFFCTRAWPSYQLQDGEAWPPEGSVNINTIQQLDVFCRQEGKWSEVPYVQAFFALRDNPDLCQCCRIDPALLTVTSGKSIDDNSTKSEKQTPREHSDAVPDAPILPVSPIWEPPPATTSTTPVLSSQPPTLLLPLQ

[8] = target: T9, Fc-His-tagged human B7H6 ECD (human); experiment: ELISA, plate coated with Fc-His-tagged human B7H6 ECD, anti-human IgG F(ab')2-peroxidase, TMB
T9 construct: also called huB7H6-ECD-Fc-His; recombinant human B7H6 ECD
Description: To assess binding of B7H6/CD3 binding proteins to recombinant human Fc-His-tagged B7H6 ECD and human Fc-His-tagged Ala-mutated B7H6 extracellular proteins as described in Example 3, MediSorp™ plates (Nunc, 467320) were coated with […] recombinant proteins overnight at 4° C. The next day, plates were blocked with 0.5% bovine serum albumin (BSA) in phosphate buffered saline (PBS) for 1 hour at room temperature (RT). Subsequently plates were washed with […] containing 0.05% TWEEN®20 viscous liquid and B7H6/CD3 binding proteins were incubated at concentrations ranging from 0.00001 to 10 μg/ml. After an additional washing step, bound B7H6/CD3 binding proteins were detected by a peroxidase conjugated goat anti-human IgG F(ab′)₂-specific secondary antibody (Jackson Immunoresearch) and visualized by TMB substrate solution (Bender Med Systems).

T3 sequence (chain, as listed by the source limits assumed): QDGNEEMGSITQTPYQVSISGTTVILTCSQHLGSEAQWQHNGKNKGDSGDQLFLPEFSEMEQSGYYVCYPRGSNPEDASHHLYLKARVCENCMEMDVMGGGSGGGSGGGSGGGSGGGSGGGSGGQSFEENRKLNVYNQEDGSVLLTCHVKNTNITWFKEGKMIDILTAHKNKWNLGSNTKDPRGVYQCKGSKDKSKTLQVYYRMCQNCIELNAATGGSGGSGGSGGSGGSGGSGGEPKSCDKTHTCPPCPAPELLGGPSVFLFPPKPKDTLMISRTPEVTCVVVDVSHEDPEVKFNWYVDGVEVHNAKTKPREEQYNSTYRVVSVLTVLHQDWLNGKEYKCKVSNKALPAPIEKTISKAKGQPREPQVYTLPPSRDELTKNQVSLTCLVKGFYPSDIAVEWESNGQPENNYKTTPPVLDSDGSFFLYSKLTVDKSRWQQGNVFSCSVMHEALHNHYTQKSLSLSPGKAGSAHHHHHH
T1 sequence (P07766 23-207, chain 1 of 2): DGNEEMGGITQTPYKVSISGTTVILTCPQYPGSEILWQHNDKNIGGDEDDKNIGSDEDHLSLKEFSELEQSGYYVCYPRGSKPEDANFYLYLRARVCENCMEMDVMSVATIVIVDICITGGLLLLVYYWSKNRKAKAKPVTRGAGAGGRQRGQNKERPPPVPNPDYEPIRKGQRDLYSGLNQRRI
T1 sequence (P09693 23-182, chain 2 of 2): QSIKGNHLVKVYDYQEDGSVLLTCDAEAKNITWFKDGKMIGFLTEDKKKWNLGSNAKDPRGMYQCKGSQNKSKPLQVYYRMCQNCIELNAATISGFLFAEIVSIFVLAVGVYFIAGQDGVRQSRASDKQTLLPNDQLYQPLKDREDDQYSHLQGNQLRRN
T4 sequence (P00698 19-147): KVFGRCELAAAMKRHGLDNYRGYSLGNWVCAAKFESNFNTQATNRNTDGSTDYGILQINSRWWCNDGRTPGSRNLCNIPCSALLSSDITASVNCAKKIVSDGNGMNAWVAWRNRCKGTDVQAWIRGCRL
T6 sequence (chain, as listed by the source limits assumed): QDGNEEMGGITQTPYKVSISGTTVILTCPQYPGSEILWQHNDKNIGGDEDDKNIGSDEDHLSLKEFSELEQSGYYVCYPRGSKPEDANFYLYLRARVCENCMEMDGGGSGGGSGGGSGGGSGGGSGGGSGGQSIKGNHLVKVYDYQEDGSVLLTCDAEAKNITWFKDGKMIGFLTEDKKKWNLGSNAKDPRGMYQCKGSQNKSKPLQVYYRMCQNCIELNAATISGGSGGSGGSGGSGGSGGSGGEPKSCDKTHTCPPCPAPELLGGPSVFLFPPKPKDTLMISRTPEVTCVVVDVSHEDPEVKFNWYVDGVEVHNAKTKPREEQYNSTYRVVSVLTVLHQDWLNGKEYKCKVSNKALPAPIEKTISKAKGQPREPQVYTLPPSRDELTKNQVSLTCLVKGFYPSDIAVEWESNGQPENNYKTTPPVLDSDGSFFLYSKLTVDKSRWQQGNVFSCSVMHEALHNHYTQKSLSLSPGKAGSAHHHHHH
T5 sequence (Q9NZQ7 other isoform, or with tags, fused parts or gaps limits assumed): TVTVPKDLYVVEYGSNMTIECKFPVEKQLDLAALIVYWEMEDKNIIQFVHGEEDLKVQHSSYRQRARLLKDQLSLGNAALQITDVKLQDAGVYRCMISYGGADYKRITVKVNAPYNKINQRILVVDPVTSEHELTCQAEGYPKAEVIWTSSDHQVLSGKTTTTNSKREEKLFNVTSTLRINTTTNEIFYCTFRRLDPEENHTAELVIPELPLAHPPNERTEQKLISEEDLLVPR
T7 sequence (P01070 25-205): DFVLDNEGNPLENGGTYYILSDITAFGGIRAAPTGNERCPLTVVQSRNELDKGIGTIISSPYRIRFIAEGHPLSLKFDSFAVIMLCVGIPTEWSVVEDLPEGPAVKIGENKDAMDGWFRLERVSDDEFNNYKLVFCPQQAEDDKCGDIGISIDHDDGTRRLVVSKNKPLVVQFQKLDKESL

binding result (CD3 on human T-cells)	cy/hu B7-H6 (Cyno B7H6-His [1])	cy/hu CD3 (Cyno CD3 E+G HuFc-6xHis [2])	Non-specific binding (RU) [3] [RU]	binding result (Human B7H1)	Kd (Cyno B7H6-His [4]) [nM]	Kd (Human CD3 E+G HuFc-6xHis) [nM]	Kd (Cyno CD3 E+G HuFc-6xHis [5]) [nM]	Non-specific binding (RU) [6] [RU]	EC50 (read off the curve) [8] [µg/mL]	Binder	EC50 [nM], 72 hour cytotoxicity assay, non-stimulated T-cells (Donor #1) as effector cells, HCT-15 cells as target cells [7] [nM]
binds	0.9	1	11.2	no binding (tested: 1 µM)	1	16.9	17.7	12.2	–	B7H6#14/CD3#2 (bispecific antibody, human IgG1, kappa, L234A L235A, scFab-Fc heterodimer) chain 1: DIQMTQSPSSLSASVGDRVTITCKASQNVGKYVAWYQQKPGKAPKSLIYSASNRYDGVPSRFSGSGSGTDFTLTISSLQPEDFATYFCQQYISYPLTFGAGTKLEIKRTVAAPSVFIFPPSDEQLKSGTASVVCLLNNFYPREAKVQWKVDNALQSGNSQESVTEQDSKDSTYSLSSTLTLSKADYEKHKVYACEVTHQGLSSPVTKSFNRGECGGGGSEGKSSGSGSESKSTEGKSSGSGSESKSTGGGGSQVQLVQSGAEVKKPGASVKVSCKASGYTFTNYWMNWMKQAPGQGLEWIGGIYLNGDSTDYNEKFKGKVTMTVDTSTSTVYMELSSLRSEDTAVYYCTRRGDYFGDFWGQGTLVTVSSASTKGPSVFPLAPSSKSTSGGTAALGCLVKDYFPEPVTVSWNSGALTSGVHTFPAVLQSSGLYSLSSVVTVPSSSLGTQTYICNVNHKPSNTKVDKRVEPKSCDKTHTCPPCPAPEAAGGPSVFLFPPKPKDTLMISRTPEVTCVVVDVSHEDPEVKFNWYVDGVEVHNAKTKPREEQYNSTYRVVSVLTVLHQDWLNGKEYKCKVSNKALPAPIEKTISKAKGQPREPQVYTLPPSREEMTKNQVSLWCLVKGFYPSDIAVEWESNGQPENNYKTTPPVLDSDGSFFLYSKLTVDKSRWQQGNVFSCSVMHEALHNHYTQKSLSLSPG chain 2: not shown	–
binds	0.8	1.1	8.8	no binding (tested: 1 µM)	1.1	7.6	8.5	22.6	–	B7H6#14/CD3#4 (bispecific antibody, human IgG1, kappa, L234A L235A, scFab-Fc heterodimer) chain 1: DIQMTQSPSSLSASVGDRVTITCKASQNVGKYVAWYQQKPGKAPKSLIYSASNRYDGVPSRFSGSGSGTDFTLTISSLQPEDFATYFCQQYISYPLTFGAGTKLEIKRTVAAPSVFIFPPSDEQLKSGTASVVCLLNNFYPREAKVQWKVDNALQSGNSQESVTEQDSKDSTYSLSSTLTLSKADYEKHKVYACEVTHQGLSSPVTKSFNRGECGGGGSEGKSSGSGSESKSTEGKSSGSGSESKSTGGGGSQVQLVQSGAEVKKPGASVKVSCKASGYTFTNYWMNWMKQAPGQGLEWIGGIYLNGDSTDYNEKFKGKVTMTVDTSTSTVYMELSSLRSEDTAVYYCTRRGDYFGDFWGQGTLVTVSSASTKGPSVFPLAPSSKSTSGGTAALGCLVKDYFPEPVTVSWNSGALTSGVHTFPAVLQSSGLYSLSSVVTVPSSSLGTQTYICNVNHKPSNTKVDKRVEPKSCDKTHTCPPCPAPEAAGGPSVFLFPPKPKDTLMISRTPEVTCVVVDVSHEDPEVKFNWYVDGVEVHNAKTKPREEQYNSTYRVVSVLTVLHQDWLNGKEYKCKVSNKALPAPIEKTISKAKGQPREPQVYTLPPSREEMTKNQVSLWCLVKGFYPSDIAVEWESNGQPENNYKTTPPVLDSDGSFFLYSKLTVDKSRWQQGNVFSCSVMHEALHNHYTQKSLSLSPG chain 2: not shown	–
–	–	–	–	–	–	–	–	–	~0.05	B7H6#9/CD3#1 (bispecific antibody, human IgG1, kappa, lambda, L234A L235A, scFab-Fc heterodimer, one B7H6 chain and one CD3 chain) chain 1: DIVLTQSPVSLAVSLGQRATISCRASESVDNFGVSFMNWFQQKPGQPPKLLIYAASNQGSGVPARFSGSGSGTDFSLNIHPLEEDDTAMYFCQQSKEVPWTFGGGTRLEIKRTVAAPSVFIFPPSDEQLKSGTASVVCLLNNFYPREAKVQWKVDNALQSGNSQESVTEQDSKDSTYSLSSTLTLSKADYEKHKVYACEVTHQGLSSPVTKSFNRGECGGGGSEGKSSGSGSESKSTEGKSSGSGSESKSTGGGGSQVQLQQPGAEMVRPGSSVKLSCKASDYTFTHYWIHWVKQRPLEGLEWIGIIGPSDNEIHYNQDFKDKATLTVDKSSNTAYLHLNSLTSEDSAVYYCARQIISMVVGTEYFDVWGTGTTVTVSSASTKGPSVFPLAPSSKSTSGGTAALGCLVKDYFPEPVTVSWNSGALTSGVHTFPAVLQSSGLYSLSSVVTVPSSSLGTQTYICNVNHKPSNTKVDKRVEPKSCDKTHTCPPCPAPEAAGGPSVFLFPPKPKDTLMISRTPEVTCVVVDVSHEDPEVKFNWYVDGVEVHNAKTKPREEQYNSTYRVVSVLTVLHQDWLNGKEYKCKVSNKALPAPIEKTISKAKGQPREPQVYTLPPSREEMTKNQVSLWCLVKGFYPSDIAVEWESNGQPENNYKTTPPVLDSDGSFFLYSKLTVDKSRWQQGNVFSCSVMHEALHNHYTQKSLSLSPG chain 2: EAVVTQEPSLTVSPGGTVTLTCRSSTGAVTTSNYANWVQEKPGQLPRGLIGGTNKRAPWVPARFSGSLLGGKAALTLSGAQPEDEAEYFCALWYSNLWVFGGGTKLTVLGQPKAAPSVTLFPPSSEELQANKATLVCLISDFYPGAVKVAWKADGSPVNTGVETTTPSKQSNNKYAASSYLSLTPEQWKSHRSYSCQVTHEGSTVEKTVAPAECSGGGGSEGKSSGSGSESKSTEGKSSGSGSESKSTGGGGSEVQLVESGGGLVQPGGSLKLSCAASGFTFNTYAMNWVRQAPGKGLEWVARIRSKYNNYATYYADSVKDRFTISRDDSKNTAYLQMNNLKTEDTAVYYCVRHGNFGNSYVSWFAYWGQGTLVTVSAASTKGPSVFPLAPSSKSTSGGTAALGCLVKDYFPEPVTVSWNSGALTSGVHTFPAVLQSSGLYSLSSVVTVPSSSLGTQTYICNVNHKPSNTKVDKRVEPKSCDKTHTCPPCPAPEAAGGPSVFLFPPKPKDTLMISRTPEVTCVVVDVSHEDPEVKFNWYVDGVEVHNAKTKPREEQYNSTYRVVSVLTVLHQDWLNGKEYKCKVSNKALPAPIEKTISKAKGQPREPQVYTLPPSREEMTKNQVSLSCAVKGFYPSDIAVEWESNGQPENNYKTTPPVLDSDGSFFLVSKLTVDKSRWQQGNVFSCSVMHEALHNRFTQKSLSLSPG	0.44
